Source: patent US20210238276A1 (INTEGRAL MOLECULAR, published 2021)
Positions count from the first letter of the chain named. Values belong to the molecule of their own block, whether it stands above or below them.

How the values were obtained:
Assay in all cases: flow cytometry, alanine-scan library in HEK-293T
[1] = biological target: T1, hsGLUT4 L247A (human, UniProt P14672 1-509)
T1 sequence: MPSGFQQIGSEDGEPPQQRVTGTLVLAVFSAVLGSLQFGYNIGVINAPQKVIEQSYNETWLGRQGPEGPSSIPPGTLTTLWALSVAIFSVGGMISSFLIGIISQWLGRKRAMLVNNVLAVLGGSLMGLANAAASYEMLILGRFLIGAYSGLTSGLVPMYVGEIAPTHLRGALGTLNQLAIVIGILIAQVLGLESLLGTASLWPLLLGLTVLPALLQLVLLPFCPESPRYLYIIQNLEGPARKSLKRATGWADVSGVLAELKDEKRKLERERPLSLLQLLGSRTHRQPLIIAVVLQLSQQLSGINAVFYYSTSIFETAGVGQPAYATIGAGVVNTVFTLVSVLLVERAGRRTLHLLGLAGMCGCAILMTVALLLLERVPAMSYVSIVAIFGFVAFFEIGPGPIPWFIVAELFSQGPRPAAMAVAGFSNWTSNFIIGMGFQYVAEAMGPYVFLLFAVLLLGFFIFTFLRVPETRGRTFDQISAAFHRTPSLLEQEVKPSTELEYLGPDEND
Procedure, shortened: (§1)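 HEK-293T cells expressing individual GLUT4 alanine mutants were stained 48 h post-transfection with anti-GLUT4 scFv MAbs (2 μg/ml), then biotinylated secondary and streptavidin-PerCP, and read by high-throughput flow cytometry. Where used, cytochalasin B (10 uM final) was given for 30 min before and during primary antibody staining.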

[2] = biological target: T2, hsGLUT4 Y309A (human, UniProt P14672 1-509)
T2 sequence: T1 sequence with A247L, Y309A
Procedure, shortened: as §1

[3] = biological target: T3, hsGLUT4 Y502A (human, UniProt P14672 1-509)
T3 sequence: T1 sequence with A247L, Y502A
Procedure, shortened: as §1

[4] = biological target: T4, hsGLUT4 Y159A (human, UniProt P14672 1-509)
T4 sequence: T1 sequence with Y159A, A247L
Procedure, shortened: as §1

% of binding to wild type GLUT4 [1]: 95%
% of binding to wild type GLUT4 [2]: 75%
% of binding to wild type GLUT4 [3]: 51%
% of binding to wild type GLUT4 [4]: 96%
Molecule: 1F8 (antibody)

% of binding to wild type GLUT4 [1]: 111%
% of binding to wild type GLUT4 [2]: 64%
% of binding to wild type GLUT4 [3]: 4%
% of binding to wild type GLUT4 [4]: 122%
B1: AB101 (scFv)
scFv: ALTQPSSVSANPGETVKITCSGSSNSYGWYQQKSPGSAPVTVIYYNDKRPSDIPSRFSGSKSDSTHTLTITGVRAEDEAVYFCGSYDSTYVGIFGAGTTLTVLGQSSRSSGGGGSSGGGGSAVTLDESGGGLQTPGGTLSLVCKASGFTFSSNAMGWVRQAPGKGLEWVAGISSDGRYTKYGSAVKGRATISRDNGQSTVRLQLNNLRAEDTGTYFCAKAFGNNYRRIYAGQIDAWGHGTEVIVSS
notes: Chicken-derived clone used as a control; the four lead clones were tested as scFv-human IgG1 Fc; also called MAb AB101

More lines, now with the values behind:

B2: AB111 (Fc fusion)
scFv: ALTQPSSVSANPGETVKITCSGSGSWYGWFQQKSPGSAPVTVIYSNDKRPSDIPSRFSGSKSGSTSTLTITGVQVEDEAVYYCGNWDIFGAGTTLTVLGQSSRSSGGGGSSGGGGSAVTLDESGGGLQTPGGALSLVCKASGFTFSSHGMGWVRQAPGKGLEWVASISTGRYTFYAPAVKGRATISRDNGQSTVRLQLNNLRAEDTATYYCTKCAGLNGCGGGEIDAWGHGTEVIVSS
notes: Bivalent scFv-Fc; also called MAb AB111; not shown: Fc fragment of human IgG1, cloned in frame with the scFv
% of binding to wild type GLUT4 [1]: 99%
% of binding to wild type GLUT4 [2]: 110%
% of binding to wild type GLUT4 [3]: 169%
% of binding to wild type GLUT4 [4]: 88%

B3: AB108 (Fc fusion)
scFv: ALTQPSSVSANLGGTVKITCSGSSGSYGWYQQKAPGSAPVTLIYRNDKRPSDIPSRFSGSESGSTGTLTITGVQAEDEAVYFCGGYDSSAGYAAFGAGTTLTVLGQSSRSSGGGGSSGGGGSAVTLDESGGGLQTPGGALSLVCKASGFTFSSHGMGWVRQAPGKGLEWVGSISTGRYTFYAPAVKGRATISRDNGQSTLRLQLNNLRAEDTGTYYCTKCAGLNGCGGGEIDAWGHGTEVIVSS
notes: Bivalent scFv-Fc; also called MAb AB108; not shown: Fc fragment of human IgG1, cloned in frame with the scFv
% of binding to wild type GLUT4 [1]: 110%
% of binding to wild type GLUT4 [2]: 91%
% of binding to wild type GLUT4 [3]: 94%
% of binding to wild type GLUT4 [4]: 46%
